Data published in patent US12098378B2, “Anti-fungal polypeptides” (priority 2020, dated 2024).

Legend:
[1] = tested on: Oidium neolycopersici; test: Control of powdery mildew on tomato; format: in vivo; conditions: 250, 500, 750 g ai/ha, 5 applications, until one week after the last application
Procedure: Four replicates of 15 tomato plants (9.9 m^2 per plot) were treated with […] of spray solution, corresponding with a spray volume of […], according to local practice. The spray mix contained a concentration of active ingredient as described in Table 5. Five applications were performed spaced 7 days apart. No artificial infection was performed and first spray was placed when first symptoms were observed. The efficacy of 10G11 was compared to that of a non-treated control and the chemical reference Topas (Penconazole). In addition, a chemical rotation of Systhane Forte (Myclobutanil), Ortiva (Azoxystrobin), Signum (Boscalid. Pyraclostrobin) and Topas was evaluated. A seventh treatment replaced part of the chemicals in this chemical rotation by 10G11 as described in Table 5.
The percentage of leaf area affected by the disease (disease severity) was recorded in 10 randomly selected leaves per plot. Percentage incidence (PESINC; % of affected leaves), was calculated based on these values. Assessments were performed on a weekly basis and continued until 1 week after the last application.

[2] = tested on: Botrytis cinerea spores; test: Microscopic time-lapse imaging of spores (mode of action); format: cell-based; conditions: IncuCyte time-lapse imaging (FIG. 14)
Source text: The action of 10G11 disrupting liposomes (Example 12), further underscores lysing of spores can be attributed to the action of 10G11.

[3] = tested on: Podosphaera xanthii; test: Control of powdery mildew on cucumber in greenhouse; format: in vivo
Procedure: Four replicates of 10 plants per plot of cucumber plants (4 m^2 per plot) were treated with a spray volume between 1000 and 18751/ha depending on the crop height. The spray mix contained a concentration of active ingredient as described in Table 8. Eight applications were performed spaced 7 days apart. No artificial infection was performed and first spray was placed at the onset of flowering. The efficacy of 10G11 was compared to that of a non-treated control, a chemical reference Topaz (Penconazole), a biological reference Sonata (Bacillus pumilis strain QST 2808) in combination with the adjuvant Elasto G5 and a chemical rotation of Takumi (Cyflufenamid), Flint (Trifloxystrobin) and Topaz.
Efficacy assessments were performed on 40 leaves per plot, assessing the percentage of leaf area affected (PESSEV). Assessments were performed on a weekly basis and continued until two weeks after the last application.

B1: 10G11: VHH polypeptide, SEQ ID NO: 2, begins with a D residue (protein)
VHH: DVQLVESGGGLVQAGGSLRLSCAASRSIFSINAMDWYRQAPGKQREWVAGITRGGTTKYADSVKGRFTISRDNAKKKVYLQMNSLKPEDTAVYYCNVLRGEQPWTRDYWGQGTQVTVSS
[1]; mild disease pressure (FIG. 22)
  severity of powdery mildew on tomato (percentage of leaf area affected): clear and dose-related performance
[1]; mild disease pressure (FIG. 23)
  incidence (PESINC) of powdery mildew on tomato: clear and dose-related performance
[2]
  spore lysis (loss of structural integrity): substantial portion of spores are also lysed
  spore outgrowth: inhibited in commencing spore outgrowth
[3]; 125, 250, 500 g ai/ha LWA, until 1 week after the seventh application (FIG. 28)
  severity (PESSEV) of powdery mildew on cucumber: clear and dose-related performance
[3]; from the eighth application, very severe disease pressure (FIG. 28)
  severity (PESSEV) of powdery mildew on cucumber: Performance decreased
